In PMC10897196, “Structure–activity characteristics of phenylalanine analogs selectively transported by L-type amino acid transporter 1 (LAT1)” (Scientific Reports, 2024):
Where “and” joins values, the source holds several entries; their conditions need not be identical. Equal values may be shown once.

Key:
Assay in all cases: Efflux of pre-loaded L-[14C]alanine from HEK293-hLAT2 cells induced by extracellular compounds
Assay type in all cases: cell-based, human
Settings in all cases: other: LAT2, L-[14C]alanine efflux, 1 min; mean ± S.E.M., n = 3; 37.0 °C
[1] = substrate: N[C@]1(C(=O)O)CCc2ccccc2C1
Method: (§1) We evaluated the efflux of pre-loaded L-[^14C]leucine from LAT1 and pre-loaded L-[^14C]alanine from LAT2 induced by extracellularly applied compounds.
(§2) Efflux experiments were performed as described previously. Cells cultured 48 h were pre-loaded with 5 μM L-[^14C]leucine or L-[^14C]alanine for 10 min at 37 °C. The cells were then washed, and the efflux was induced by incubating cells for 1 min in either the absence or presence of non-radiolabeled test compounds at indicated concentrations. The efflux time of 1 min fell within the linear range of time-dependent substrate efflux mediated by LAT1 and LAT2 (Supplementary Fig. S2). Following incubation, the medium was collected and radioactivity was measured in both the medium and the cells. Efflux was quantified as the percentage of radioactivity released into the medium, calculated using the formula: radioactivity of medium/(radioactivity of medium + radioactivity of cells) × 100%.
(§3) The kinetic parameters for the efflux of L-[^14C]leucine or L-[^14C]alanine induced by various concentrations of extracellularly-applied test compounds were analyzed. The baseline efflux values—those obtained in the absence of test compounds—were subtracted from the values measured in the presence of the compounds. The resultant data were fitted to Michaelis–Menten kinetics to determine the Km and Vmax by nonlinear regression analysis using “enzyme kinetics-velocity as a function of substrate” module within GraphPad Prism software.

[2] = substrate: N[C@@H](Cc1ccccc1)C(=O)O
Method: as §1, §2, §3

[3] = substrate: C[C@](N)(Cc1ccccc1)C(=O)O
Method: as §1, §2, §3

[4] = substrate: N[C@@H](Cc1ccccc1I)C(=O)O
Method: as §1, §2, §3

B1: human LAT2 (Homo sapiens) (protein)
chain: MEEGARHRNNTEKKHPGGGESDASPEAGSGGGGVALKKEIGLVSACGIIVGNIIGSGIFVSPKGVLENAGSVGLALIVWIVTGFITVVGALCYAELGVTIPKSGGDYSYVKDIFGGLAGFLRLWIAVLVIYPTNQAVIALTFSNYVLQPLFPTCFPPESGLRLLAAICLLLLTWVNCSSVRWATRVQDIFTAGKLLALALIIIMGIVQICKGEYFWLEPKNAFENFQEPDIGLVALAFLQGSFAYGGWNFLNYVTEELVDPYKNLPRAIFISIPLVTFVYVFANVAYVTAMSPQELLASNAVAVTFGEKLLGVMAWIMPISVALSTFGGVNGSLFTSSRLFFAGAREGHLPSVLAMIHVKRCTPIPALLFTCISTLLMLVTSDMYTLINYVGFINYLFYGVTVAGQIVLRWKKPDIPRPIKINLLFPIIYLLFWAFLLVFSLWSEPVVCGIGLAIMLTGVPVYFLGVYWQHKPKCFSDFIELLTLVSQKMCVVVYPEVERGSGTEEANEDMEEQQQPMYQPTPTKDKDVAGQPQP
notes: expressed in transfected cells
For B1, the Km [1] was 30 µM and 29.96 ± 4.00 µM, the Km [2] was 25.21 ± 2.43 µM and the Km [3] was 246.49 ± 23.00 µM. For the same protein, the Km [4] was 35.34 ± 1.95 µM.
